Measurements as given in US20200087373A1 (UNIVERSITY OF COPENHAGEN, published 2020).
Ends that are not written are not given here. * marks the point of attachment. C16 diacid = O=C(O)CCCCCCCCCCCCCCC(=O)*; C12 diacid = O=C(O)CCCCCCCCCCC(=O)*; Stearoyl = CCCCCCCCCCCCCCCCCC(=O)*; Palmitoyl = CCCCCCCCCCCCCCCC(=O)*; Lauroyl = CCCCCCCCCCCC(=O)*

T1: human GIP receptor (human, UniProt P48546 22-466)
T1 sequence (looked up): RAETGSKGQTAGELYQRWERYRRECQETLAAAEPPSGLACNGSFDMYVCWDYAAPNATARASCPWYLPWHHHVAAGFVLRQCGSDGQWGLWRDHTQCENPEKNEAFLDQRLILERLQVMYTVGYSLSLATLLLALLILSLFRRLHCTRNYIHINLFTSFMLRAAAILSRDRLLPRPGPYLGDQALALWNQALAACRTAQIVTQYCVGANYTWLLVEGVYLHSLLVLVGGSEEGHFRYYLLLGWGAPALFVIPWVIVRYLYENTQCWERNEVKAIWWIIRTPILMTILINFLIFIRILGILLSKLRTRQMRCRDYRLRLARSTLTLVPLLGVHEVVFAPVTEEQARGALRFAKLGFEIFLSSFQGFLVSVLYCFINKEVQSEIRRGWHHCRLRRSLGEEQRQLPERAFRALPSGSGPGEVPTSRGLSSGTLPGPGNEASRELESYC

B1: AT148 [hGIP(3-30)NH2-C12/3] (peptide)
peptide: Lauroyl-EGTFISDYSIAMDKIHQQDFVNWLLAQK-NH2
B2: AT163 [hGIP(3-30)NH2[H18K]-C16/16] (peptide)
peptide: EGTFISDYSIAMDK(Palmitoyl)IKQQDFVNWLLAQK-NH2
modifications: N-terminus assumed
SMILES: CCCCCCCCCCCCCCCC(=O)NCCCC[C@H](NC(=O)[C@H](CC(=O)O)NC(=O)[C@H](CCSC)NC(=O)[C@H](C)NC(=O)[C@@H](NC(=O)[C@H](CO)NC(=O)[C@H](Cc1ccc(O)cc1)NC(=O)[C@H](CC(=O)O)NC(=O)[C@H](CO)NC(=O)[C@@H](NC(=O)[C@H](Cc1ccccc1)NC(=O)[C@@H](NC(=O)CNC(=O)[C@@H](N)CCC(=O)O)[C@@H](C)O)[C@@H](C)CC)[C@@H](C)CC)C(=O)N[C@H](C(=O)N[C@@H](CCCCN)C(=O)N[C@@H](CCC(N)=O)C(=O)N[C@@H](CCC(N)=O)C(=O)N[C@@H](CC(=O)O)C(=O)N[C@@H](Cc1ccccc1)C(=O)N[C@H](C(=O)N[C@@H](CC(N)=O)C(=O)N[C@@H](Cc1c[nH]c2ccccc12)C(=O)N[C@@H](CC(C)C)C(=O)N[C@@H](CC(C)C)C(=O)N[C@@H](C)C(=O)N[C@@H](CCC(N)=O)C(=O)N[C@@H](CCCCN)C(N)=O)C(C)C)[C@@H](C)CC
B3: AT159 [hGIP(3-30)NH2[K16R; H18K; K30R]-C16diacid/18] (peptide)
peptide: EGTFISDYSIAMDRIK(C16 diacid)QQDFVNWLLAQR-NH2
modifications: N-terminus assumed
SMILES: CC[C@H](C)[C@H](NC(=O)[C@H](CO)NC(=O)[C@H](Cc1ccc(O)cc1)NC(=O)[C@H](CC(=O)O)NC(=O)[C@H](CO)NC(=O)[C@@H](NC(=O)[C@H](Cc1ccccc1)NC(=O)[C@@H](NC(=O)CNC(=O)[C@@H](N)CCC(=O)O)[C@@H](C)O)[C@@H](C)CC)C(=O)N[C@@H](C)C(=O)N[C@@H](CCSC)C(=O)N[C@@H](CC(=O)O)C(=O)N[C@@H](CCCNC(=N)N)C(=O)N[C@H](C(=O)N[C@@H](CCCCNC(=O)CCCCCCCCCCCCCCC(=O)O)C(=O)N[C@@H](CCC(N)=O)C(=O)N[C@@H](CCC(N)=O)C(=O)N[C@@H](CC(=O)O)C(=O)N[C@@H](Cc1ccccc1)C(=O)N[C@H](C(=O)N[C@@H](CC(N)=O)C(=O)N[C@@H](Cc1c[nH]c2ccccc12)C(=O)N[C@@H](CC(C)C)C(=O)N[C@@H](CC(C)C)C(=O)N[C@@H](C)C(=O)N[C@@H](CCC(N)=O)C(=O)N[C@@H](CCCNC(=N)N)C(N)=O)C(C)C)[C@@H](C)CC
B4: AT160 [hGIP(3-30)NH2[H18K]-C18/18] (peptide)
peptide: EGTFISDYSIAMDKIK(Stearoyl)QQDFVNWLLAQK-NH2
modifications: N-terminus assumed
SMILES: CCCCCCCCCCCCCCCCCC(=O)NCCCC[C@H](NC(=O)[C@@H](NC(=O)[C@H](CCCCN)NC(=O)[C@H](CC(=O)O)NC(=O)[C@H](CCSC)NC(=O)[C@H](C)NC(=O)[C@@H](NC(=O)[C@H](CO)NC(=O)[C@H](Cc1ccc(O)cc1)NC(=O)[C@H](CC(=O)O)NC(=O)[C@H](CO)NC(=O)[C@@H](NC(=O)[C@H](Cc1ccccc1)NC(=O)[C@@H](NC(=O)CNC(=O)[C@@H](N)CCC(=O)O)[C@@H](C)O)[C@@H](C)CC)[C@@H](C)CC)[C@@H](C)CC)C(=O)N[C@@H](CCC(N)=O)C(=O)N[C@@H](CCC(N)=O)C(=O)N[C@@H](CC(=O)O)C(=O)N[C@@H](Cc1ccccc1)C(=O)N[C@H](C(=O)N[C@@H](CC(N)=O)C(=O)N[C@@H](Cc1c[nH]c2ccccc12)C(=O)N[C@@H](CC(C)C)C(=O)N[C@@H](CC(C)C)C(=O)N[C@@H](C)C(=O)N[C@@H](CCC(N)=O)C(=O)N[C@@H](CCCCN)C(N)=O)C(C)C
B5: AT158 [hGIP(3-30)NH2[H18K]-C16diacid/18] (peptide)
peptide: EGTFISDYSIAMDKIK(C16 diacid)QQDFVNWLLAQK-NH2
modifications: N-terminus assumed
SMILES: CC[C@H](C)[C@H](NC(=O)[C@H](CO)NC(=O)[C@H](Cc1ccc(O)cc1)NC(=O)[C@H](CC(=O)O)NC(=O)[C@H](CO)NC(=O)[C@@H](NC(=O)[C@H](Cc1ccccc1)NC(=O)[C@@H](NC(=O)CNC(=O)[C@@H](N)CCC(=O)O)[C@@H](C)O)[C@@H](C)CC)C(=O)N[C@@H](C)C(=O)N[C@@H](CCSC)C(=O)N[C@@H](CC(=O)O)C(=O)N[C@@H](CCCCN)C(=O)N[C@H](C(=O)N[C@@H](CCCCNC(=O)CCCCCCCCCCCCCCC(=O)O)C(=O)N[C@@H](CCC(N)=O)C(=O)N[C@@H](CCC(N)=O)C(=O)N[C@@H](CC(=O)O)C(=O)N[C@@H](Cc1ccccc1)C(=O)N[C@H](C(=O)N[C@@H](CC(N)=O)C(=O)N[C@@H](Cc1c[nH]c2ccccc12)C(=O)N[C@@H](CC(C)C)C(=O)N[C@@H](CC(C)C)C(=O)N[C@@H](C)C(=O)N[C@@H](CCC(N)=O)C(=O)N[C@@H](CCCCN)C(N)=O)C(C)C)[C@@H](C)CC
B6: AT154 [hGIP(3-30)NH2-C12/16] (peptide)
peptide: EGTFISDYSIAMDK(Lauroyl)IHQQDFVNWLLAQK-NH2
B7: AT294 [hGIP(3-30)NH2[E3K]-C16diacid/3] (peptide)
peptide: K(C16 diacid)GTFISDYSIAMDKIHQQDFVNWLLAQK-NH2
modifications: N-terminus assumed
SMILES: CC[C@H](C)[C@H](NC(=O)[C@H](CO)NC(=O)[C@H](Cc1ccc(O)cc1)NC(=O)[C@H](CC(=O)O)NC(=O)[C@H](CO)NC(=O)[C@@H](NC(=O)[C@H](Cc1ccccc1)NC(=O)[C@@H](NC(=O)CNC(=O)[C@@H](N)CCCCNC(=O)CCCCCCCCCCCCCCC(=O)O)[C@@H](C)O)[C@@H](C)CC)C(=O)N[C@@H](C)C(=O)N[C@@H](CCSC)C(=O)N[C@@H](CC(=O)O)C(=O)N[C@@H](CCCCN)C(=O)N[C@H](C(=O)N[C@@H](Cc1c[nH]cn1)C(=O)N[C@@H](CCC(N)=O)C(=O)N[C@@H](CCC(N)=O)C(=O)N[C@@H](CC(=O)O)C(=O)N[C@@H](Cc1ccccc1)C(=O)N[C@H](C(=O)N[C@@H](CC(N)=O)C(=O)N[C@@H](Cc1c[nH]c2ccccc12)C(=O)N[C@@H](CC(C)C)C(=O)N[C@@H](CC(C)C)C(=O)N[C@@H](C)C(=O)N[C@@H](CCC(N)=O)C(=O)N[C@@H](CCCCN)C(N)=O)C(C)C)[C@@H](C)CC
B8: AT149 [hGIP(3-30)NH2[H18R; K30R]-C12diacid/3] (peptide)
peptide: {C12 diacid}-EGTFISDYSIAMDKIRQQDFVNWLLAQR-NH2
SMILES: CC[C@H](C)[C@H](NC(=O)[C@H](CO)NC(=O)[C@H](Cc1ccc(O)cc1)NC(=O)[C@H](CC(=O)O)NC(=O)[C@H](CO)NC(=O)[C@@H](NC(=O)[C@H](Cc1ccccc1)NC(=O)[C@@H](NC(=O)CNC(=O)[C@H](CCC(=O)O)NC(=O)CCCCCCCCCCC(=O)O)[C@@H](C)O)[C@@H](C)CC)C(=O)N[C@@H](C)C(=O)N[C@@H](CCSC)C(=O)N[C@@H](CC(=O)O)C(=O)N[C@@H](CCCCN)C(=O)N[C@H](C(=O)N[C@@H](CCCNC(=N)N)C(=O)N[C@@H](CCC(N)=O)C(=O)N[C@@H](CCC(N)=O)C(=O)N[C@@H](CC(=O)O)C(=O)N[C@@H](Cc1ccccc1)C(=O)N[C@H](C(=O)N[C@@H](CC(N)=O)C(=O)N[C@@H](Cc1c[nH]c2ccccc12)C(=O)N[C@@H](CC(C)C)C(=O)N[C@@H](CC(C)C)C(=O)N[C@@H](C)C(=O)N[C@@H](CCC(N)=O)C(=O)N[C@@H](CCCNC(=N)N)C(N)=O)C(C)C)[C@@H](C)CC
B9: AT153 [hGIP(3-30)NH2[H18R; K30R]-C12/16] (peptide)
peptide: EGTFISDYSIAMDK(Lauroyl)IRQQDFVNWLLAQR-NH2
modifications: N-terminus assumed
SMILES: CCCCCCCCCCCC(=O)NCCCC[C@H](NC(=O)[C@H](CC(=O)O)NC(=O)[C@H](CCSC)NC(=O)[C@H](C)NC(=O)[C@@H](NC(=O)[C@H](CO)NC(=O)[C@H](Cc1ccc(O)cc1)NC(=O)[C@H](CC(=O)O)NC(=O)[C@H](CO)NC(=O)[C@@H](NC(=O)[C@H](Cc1ccccc1)NC(=O)[C@@H](NC(=O)CNC(=O)[C@@H](N)CCC(=O)O)[C@@H](C)O)[C@@H](C)CC)[C@@H](C)CC)C(=O)N[C@H](C(=O)N[C@@H](CCCNC(=N)N)C(=O)N[C@@H](CCC(N)=O)C(=O)N[C@@H](CCC(N)=O)C(=O)N[C@@H](CC(=O)O)C(=O)N[C@@H](Cc1ccccc1)C(=O)N[C@H](C(=O)N[C@@H](CC(N)=O)C(=O)N[C@@H](Cc1c[nH]c2ccccc12)C(=O)N[C@@H](CC(C)C)C(=O)N[C@@H](CC(C)C)C(=O)N[C@@H](C)C(=O)N[C@@H](CCC(N)=O)C(=O)N[C@@H](CCCNC(=N)N)C(N)=O)C(C)C)[C@@H](C)CC

Target: T1, human GIP receptor
Test: cell-based or functional assay

Row | Binder | cAMP agonism, EC50 (log) [log M] | cAMP agonism, Emax [%] | cAMP agonism, nM (EC50) [nM] | cAMP antagonism, log (IC50) [log M] | cAMP antagonism, nM (IC50) [nM]
1 | B1 | -7.9 | 43 | 13 | – | –
2 | B2 | – | 0 | – | -6.7 | 212
3 | B3 | -8.7 | 6 | 2 | -8.2 | 6
4 | B4 | -6 | 13 | 962 | -7.4 | 38
5 | B5 | -8.5 | 6 | 3.1 | -8.3 | 5
6 | B6 | – | 0 | – | -7.2 | 63
7 | B7 | -8.7 | 74 | 1.8 | -8.6 | 2.5
8 | B8 | – | 50 | – | – | –
9 | B9 | – | 0 | – | -6.7 | 187
